The values that follow come from article PMC12151148.

One assay concerns the target FL-AGS3 (mouse). Kind of assay: ITC; 25°C; 50 mM Tris (pH 8.0), 100 mM NaCl, 1 mM EDTA; one protein (0.2 mM) injected into another (0.02 mM); one-site binding model. A general note: In ITC the heat of successive injections is recorded.
Assay [1] concerns the target FL-LGN + Gαi3⋅GDP (mouse | human) (UniProt P08754). The description is as above.
A further assay has as its target FL-LGN (mouse). Described as above.
The target in assay [2] is FL-AGS3 + Gαi3⋅GDP (mouse | human) (UniProt P08754). The assay is described as above.
For assay [3], the target named is AGS3-TPR (1–405) (mouse). Nature of the assay: ITC; 25°C; 50 mM Tris (pH 8.0), NaCl raised to 300 mM for AGS3-TPR or AGS3-L, 1 mM EDTA; one protein (0.2 mM) injected into another (0.02 mM); one-site binding model.
A further assay addresses FL-LGN-4E (mouse). Nature of the assay: SEC-MALS; called SLS; HELEOS II (Wyatt); 100 μl of purified sample at about 10 μM. Background: In gel filtration, larger molecules generally elute earlier.
In another assay the target is FL-AGS3-L-4E (mouse). The assay is described as above.
For the next assay, the target named is LGN-TPR (1–409) (mouse). The assay is described as above.
In assay [4] the target is AGS3-TPR (1–405) (mouse). Described as above.
A further assay deals with AGS3-L (−23–405) (mouse). The assay is described as above.

As a reminder, the Kd is the concentration at which binding is half-saturated.

Chain of FL-AGS3 + Gαi3⋅GDP (mouse | human) (P08754 whole entry, looked up): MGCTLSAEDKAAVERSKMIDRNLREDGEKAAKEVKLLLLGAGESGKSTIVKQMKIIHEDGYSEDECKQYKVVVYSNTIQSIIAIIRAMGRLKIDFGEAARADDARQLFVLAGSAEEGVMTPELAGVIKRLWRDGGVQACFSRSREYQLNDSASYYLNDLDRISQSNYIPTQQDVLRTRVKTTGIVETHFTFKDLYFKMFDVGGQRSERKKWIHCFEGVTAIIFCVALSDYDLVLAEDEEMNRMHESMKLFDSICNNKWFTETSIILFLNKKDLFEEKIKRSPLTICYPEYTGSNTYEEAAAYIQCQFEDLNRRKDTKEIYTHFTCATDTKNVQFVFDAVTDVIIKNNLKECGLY
Chain of FL-LGN + Gαi3⋅GDP (mouse | human) (P08754 whole entry, looked up): as above

Take WGLWGAQESRRLCCVGPDRCGQALLQIGINMMALPGGRHLDSVPLQEQR (domain or fragment) [Insc (18–66)]: the Kd was found to be 2270 nM with FL-AGS3 (mouse); 2620 nM in assay [1]; 3920 nM in the assay with FL-LGN (mouse); 2290 nM in assay [2]; 290 nM with AGS3-TPR (1–405) (mouse) [3].

B1: NuMA (1808–2001) (domain or fragment)
chain: KLDVEEPDSANSSFYSTRSAPASQASLRATSSTQSLARLGSPDYGNSALLSLPGYRPTTRSSARRSQAGVSSGAPPGRNSFYMGTCQDEPEQLDDWNRIAELQQRNRVCPPHLKTCYPLESRPSLSLGTITDEEMKTGDPQETLRRASMQPIQIAEGTGITTRQQRKRVSLEPHQGPGTPESKKATSCFPRPMT
Turning to B1, in the assay with FL-LGN-4E (mouse), the stoichiometry N (NuMA per FL-LGN-4E (2:2)) was determined as 1. In the assay with FL-AGS3-L-4E (mouse), this molecule came in with a stoichiometry N (NuMA per FL-AGS3-L-4E (1:1)) of 1. In addition, the Kd in the assay with FL-AGS3 (mouse) came out at 3610 nM; in [1], 2240 nM; with FL-LGN (mouse), 3130 nM; in assay [2], 2280 nM.

B2: NuMA (1847–1914) (domain or fragment)
chain: GSPDYGNSALLSLPGYRPTTRSSARRSQAGVSSGAPPGRNSFYMGTCQDEPEQLDDWNRIAELQQRNR
B2: in the assay with LGN-TPR (1–409) (mouse), the stoichiometry N (NuMA per LGN-TPR (3:3)) is 1. The molecule also came in with a stoichiometry N (NuMA per AGS3-TPR (1:1)) in the assay with AGS3-TPR (1–405) (mouse) [4] of 1. The molecule further yielded a stoichiometry N (NuMA per AGS3-L (3:3)) with AGS3-L (−23–405) (mouse) of 1.
Take NSFYMGTCQDEPEQLDDWNRIAELQQR (domain or fragment) [NuMA (1886–1912)]: the Kd with AGS3-TPR (1–405) (mouse) [3] is 220 nM.
